Laboratory results: patent US20250215104A1 (WALDEN BIOSCIENCES, published 2025)
Numbering of substitutions follows the chain as printed.

B1: suPAR_DB01_E07 (scFv, V domains shown)
VH: QVQLVQSGAEVKKPGASVKVSCKASGYTFTSYYMHWVRQAPGQGLEWMGWIDHENGNTIYDQKFQGRVTMTRDTSTSTVYMELSSLRSEDTAVYYCARGYDVDWFVYWGQGTLVTVSS
VL: DIQMTQSPSSLSASVGDRVTITCRASSSVSYMYWYQQKPGKAPKLLIYRTSNLASGVPSRFSGSGSGTDFTLTISSLQPEDFATYYCQQYHSYPPTFGGGTKVEIK
notes: screened as scFv
B2: suPAR_DB01_F01 (scFv, V domains shown)
VH: B1 VH with M34V, N57S, D61A
VL: B1 VL with R24S, S26R
notes: screened as scFv
B3: suPAR_DB01_E11 (scFv, V domains shown)
VH: B1 VH with S31N, N57S, D61A
VL: B1 VL with R24S, S26R
notes: screened as scFv
B4: suPAR_DB01_E08 (scFv, V domains shown)
VH: B1 VH with S31G, M34I, N57S
VL: B1 VL with R24S, S26R
notes: screened as scFv
B5: suPAR_DB01_E10 (scFv, V domains shown)
VH: B1 VH with S31G, N57S, I59S
VL: B1 VL with S26R, S27Q
notes: screened as scFv
B6: suPAR_DB01_E09 (scFv, V domains shown)
VH: B1 VH
VL: B1 VL with R24S, S26R, V29I, A54Q
notes: screened as scFv
B7: suPAR_DB01_E12 (scFv, V domains shown)
VH: QVQLVQSGAEVKKPGASVKVSCKASGGTFSSYAISWVRQAPGQGLEWLGVINPGGGGTNYAQKFQGRVTMTRDTSTSTVYMELSSLRSEDTAVYYCARGYDVDWFVTWGQGTLVTVSS
VL: DIQMTQSPSSLSASVGDRVTITCQASQDISNYINWYQQKPGKAPKLLIYDASNLASGVPSRFSGSGSGTDFTLTISSLQPEDFATYYCQQYHSYPPTFGGGTKVEIK
notes: screened as scFv
B8: suPAR_DB03_B03 (scFv, V domains shown)
VH: B1 VH with S31N, H53P, N57S
VL: B1 VL with R24S, S26R
notes: screened as scFv
B9: suPAR_DB03_C02 (scFv, V domains shown)
VH: B1 VH with T28S, S31N, M34I, Y100N
VL: B1 VL with R24S, S26R
notes: screened as scFv
B10: suPAR_DB03_C01 (scFv, V domains shown)
VH: B1 VH with Y27S, F29S, S31D, Y32H, M34V, N55G, N57S, D61A
VL: B1 VL with R24S, S26R
notes: screened as scFv
B11: suPAR_DB03_C09 (scFv, V domains shown)
VH: B1 VH with N57S
VL: B1 VL with R24S, S26R, S27Q
notes: screened as scFv
B12: suPAR_DB03_B02 (scFv, V domains shown)
VH: B1 VH with Y27D, N57S, I59S
VL: B1 VL with R24S, S26R
notes: screened as scFv
B13: suPAR_DB03_A03 (scFv, V domains shown)
VH: B1 VH with S31G, N57S, R98V
VL: B1 VL with R24S, S26R
notes: screened as scFv
B14: suPAR_DB03_A06 (scFv, V domains shown)
VH: B1 VH with Y27F, T28N, F29I, S31D, M34I, H53P, N57S, D61A
VL: B1 VL with R24S, S26R, S27Q, V29I
notes: screened as scFv
B15: suPAR_DB02_H09 (scFv, V domains shown)
VH: B1 VH with H53P, D61A, Y107F
VL: B1 VL with R24S, S26R, R49A, A54Q
notes: screened as scFv
B16: suPAR_DB02_H06 (scFv, V domains shown)
VH: B1 VH with Y27F, T28N, F29I, T30K, S31D, M34I, H53P, N55G, D61A
VL: B1 VL with S26R
notes: screened as scFv
B17: suPAR_DB03_A10 (scFv, V domains shown)
VH: B1 VH with T30S, S31N, N57S, D61A
VL: B1 VL with R24S, S26R
notes: screened as scFv
B18: suPAR_DB02_H08 (scFv, V domains shown)
VH: B1 VH with S31G, M34I, H53P, N57S
VL: B1 VL with R24S, S26R
notes: screened as scFv
B19: suPAR_DB03_C06 (scFv, V domains shown)
VH: B1 VH with S31D, M34V, N55G, N57S, I59S
VL: B1 VL with R24S
notes: screened as scFv
B20: suPAR_DB02_H07 (scFv, V domains shown)
VH: B1 VH with M34V, I51V, H53P, E54S, N55S, N57A, I59D, D61A
VL: B1 VL with R24S, S26R
notes: screened as scFv
B21: suPAR_DB03_B10 (scFv, V domains shown)
VH: B1 VH with S31G, Y100T
VL: B1 VL with R24S, V29I
notes: screened as scFv
B22: suPAR_DB03_B05 (scFv, V domains shown)
VH: B1 VH with H53P, V102I
VL: B1 VL with R24S, S26R, S27Q
notes: screened as scFv
B23: suPAR_DB03_A08 (scFv, V domains shown)
VH: B1 VH with S31G, N57S, D61A
VL: B1 VL with R24S
notes: screened as scFv
B24: suPAR_DB03_C12 (scFv, V domains shown)
VH: B1 VH with Y27N, S31N, I59S
VL: B1 VL with R24S, S26R
notes: screened as scFv
B25: suPAR_DB03_B01 (scFv, V domains shown)
VH: B1 VH with Y27N, S31G, Y32H, H35Q, I59S, D61A
VL: B1 VL with R24S, S26R
notes: screened as scFv
B26: suPAR_DB03_B08 (scFv, V domains shown)
VH: B1 VH with T28A, S31G
VL: B1 VL with S26R, S27Q
notes: screened as scFv
B27: suPAR_DB03_B06 (scFv, V domains shown)
VH: B1 VH with T28N, F29I, S31D, M34I, H53P, N57S
VL: B1 VL with R24S, S26R
notes: screened as scFv
B28: suPAR_DB03_A11 (scFv, V domains shown)
VH: B1 VH with M48V, I51M, H53P, E54N, N55S, N57G, I59S, D61A
VL: B1 VL with R24S, S26R
notes: screened as scFv
B29: suPAR_DB02_H10 (scFv, V domains shown)
VH: B1 VH with E54S
VL: B1 VL with R24S, S26R, S27Q
notes: screened as scFv
B30: suPAR_DB03_B04 (scFv, V domains shown)
VH: B1 VH with S31G, M48I, D52T, H53P, E54D, N55S, N57G, I59V, D61A
VL: B1 VL with R24S, V29I
notes: screened as scFv
B31: suPAR_DB03_C08 (scFv, V domains shown)
VH: B1 VH with Y27G, S31N, N57S, D61A
VL: B1 VL with R24S, S26R, N52S
notes: screened as scFv
B32: suPAR_DB03_C04 (scFv, V domains shown)
VH: B1 VH with Y27F, T28N, F29I, T30K, S31D, M34I, H53P, N57S
VL: B1 VL with R24S, V29I, N52S
notes: screened as scFv
B33: suPAR_DB03_B09 (scFv, V domains shown)
VH: B1 VH with T28N, F29I, T30K, M34I, H53P, N55G, N57S
VL: B1 VL with R24S, S26R
notes: screened as scFv
B34: suPAR_DB03_C03 (scFv, V domains shown)
VH: B1 VH with S31G, N57S, I59S, R98S
VL: B1 VL with R24S, S26R, R49G, T50A, A54Q
notes: screened as scFv
B35: suPAR_DB03_A09 (scFv, V domains shown)
VH: B1 VH with Y32H, M34V, E54S, N57S
VL: B1 VL with R24S, S26R, S27Q, V29I
notes: screened as scFv
B36: suPAR_DB03_C10 (scFv, V domains shown)
VH: B1 VH with N55G, N57S, D61A, R98S
VL: B1 VL with R24S, S26R
notes: screened as scFv
B37: suPAR_DB03_C07 (scFv, V domains shown)
VH: B1 VH with S31N, M34V, N57S
VL: B1 VL with R24S, S26R
notes: screened as scFv
B38: suPAR_DB03_A05 (scFv, V domains shown)
VH: B1 VH with T30S, D61A
VL: B1 VL with R24S, S26R, N52S
notes: screened as scFv

target: T1, cynomolgus soluble urokinase plasminogen activator receptor (suPAR) (cynomolgus, UniProt Q9GK78 23-303, limits assumed); assay: off-rate (kdis) screen of scFv clones, biosensor (Octet)
T1 construct: Target antigen of the off-rate screen; also called cynomolgus uPAR; cynomolgus suPAR
T1 sequence (Q9GK78 23-303 limits assumed): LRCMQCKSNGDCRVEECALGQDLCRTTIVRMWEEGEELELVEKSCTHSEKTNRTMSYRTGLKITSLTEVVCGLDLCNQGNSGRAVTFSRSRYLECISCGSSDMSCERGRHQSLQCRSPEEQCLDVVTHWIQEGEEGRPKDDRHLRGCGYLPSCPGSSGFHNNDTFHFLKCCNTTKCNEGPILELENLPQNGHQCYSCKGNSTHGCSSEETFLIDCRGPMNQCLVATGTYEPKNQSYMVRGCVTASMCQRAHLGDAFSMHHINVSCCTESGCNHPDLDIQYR

koff | Binder
6.72e-05 s⁻¹ | B1
0.000203 s⁻¹ | B2
0.000369 s⁻¹ | B3
5.85e-07 s⁻¹ | B4
0.000104 s⁻¹ | B5
0.000246 s⁻¹ | B6
0.0212 s⁻¹ | B7

target: T2, human soluble urokinase plasminogen activator receptor (suPAR) (human, UniProt Q03405 23-303, limits assumed); assay: as above
T2 construct: Target antigen of the off-rate screen; also called hsuPAR; human suPAR
T2 sequence (Q03405 23-303 limits assumed): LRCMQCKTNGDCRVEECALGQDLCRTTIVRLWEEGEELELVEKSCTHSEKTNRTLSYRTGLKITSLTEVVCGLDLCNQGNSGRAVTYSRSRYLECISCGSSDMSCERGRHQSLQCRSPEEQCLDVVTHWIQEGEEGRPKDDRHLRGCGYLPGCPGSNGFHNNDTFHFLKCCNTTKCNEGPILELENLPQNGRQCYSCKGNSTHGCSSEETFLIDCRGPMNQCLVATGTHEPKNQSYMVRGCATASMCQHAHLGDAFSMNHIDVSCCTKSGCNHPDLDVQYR

koff | Binder
0.00228 s⁻¹ | B1
0.000618 s⁻¹ | B2
0.000638 s⁻¹ | B3
0.000564 s⁻¹ | B4
0.00162 s⁻¹ | B5
0.00446 s⁻¹ | B6
0.0117 s⁻¹ | B7

target: T3, human soluble urokinase plasminogen activator receptor (hsuPAR) (human, UniProt Q03405 23-303, limits assumed); assay: BLI (Octet) off-rate screen of scFv clones
T3 construct: Target antigen of the off-rate screen; also called human suPAR; rhuPAR-His
T3 sequence (Q03405 23-303 limits assumed): as above

koff | Binder
0.00347 s⁻¹ | B8
0.00534 s⁻¹ | B9
0.00366 s⁻¹ | B10
0.00103 s⁻¹ | B11
0.0024 s⁻¹ | B12
0.00199 s⁻¹ | B13
0.00302 s⁻¹ | B14
0.0338 s⁻¹ | B15
0.00305 s⁻¹ | B16
0.000838 s⁻¹ | B17
0.00485 s⁻¹ | B18
0.00318 s⁻¹ | B19
0.00317 s⁻¹ | B20
0.004 s⁻¹ | B21
0.00536 s⁻¹ | B22
0.000306 s⁻¹ | B23

koff | Binder
0.00396 s⁻¹ | B24
0.00297 s⁻¹ | B25
0.00133 s⁻¹ | B26
0.00352 s⁻¹ | B27
0.00181 s⁻¹ | B28
0.00344 s⁻¹ | B29
0.00197 s⁻¹ | B30
0.00103 s⁻¹ | B31
0.00301 s⁻¹ | B32
0.00421 s⁻¹ | B33
0.00464 s⁻¹ | B34
0.00132 s⁻¹ | B35
0.00452 s⁻¹ | B36
0.00166 s⁻¹ | B37
0.0026 s⁻¹ | B38

target: T4, cynomolgus suPAR (cynomolgus, UniProt Q9GK78 23-303, limits assumed); assay: BLI (Octet) off-rate screen of scFv clones
T4 construct: Target antigen of the off-rate screen; also called cynomolgus uPAR; cynoPLAUR-His
T4 sequence (Q9GK78 23-303 limits assumed): as the sequence (Q9GK78 23-303 limits assumed) above

koff | Binder
0.00026 s⁻¹ | B8
0.000366 s⁻¹ | B9
0.000165 s⁻¹ | B10
3.75e-07 s⁻¹ | B11
0.000148 s⁻¹ | B12
0.000319 s⁻¹ | B13
6.32e-07 s⁻¹ | B14
0.00218 s⁻¹ | B15
0.000393 s⁻¹ | B16
0.000685 s⁻¹ | B17
0.000228 s⁻¹ | B18
0.000189 s⁻¹ | B19
0.00146 s⁻¹ | B20
0.000138 s⁻¹ | B21
0.000126 s⁻¹ | B22
0.000269 s⁻¹ | B23

koff | Binder
7.59e-05 s⁻¹ | B24
0.000343 s⁻¹ | B25
0.000226 s⁻¹ | B26
1.08e-05 s⁻¹ | B27
7.99e-05 s⁻¹ | B28
0.000189 s⁻¹ | B29
4.52e-07 s⁻¹ | B30
9.98e-05 s⁻¹ | B31
4.37e-07 s⁻¹ | B32
0.000126 s⁻¹ | B33
0.00108 s⁻¹ | B34
0.000254 s⁻¹ | B35
0.000301 s⁻¹ | B36
5.78e-05 s⁻¹ | B37
0.000259 s⁻¹ | B38
